Substitutions are numbered along the chain they refer to.

Series [1] deals with T1, Cascade- (crRNA-free Cse1-Cse2-Cas7-Cas5-Cas6e) (Escherichia coli (K12; expressed in …, UniProt Q46901;P76632;Q46899;Q46898;Q46897 1-502;1-160;1-363;1-224;1-199).
T1 sequence 1: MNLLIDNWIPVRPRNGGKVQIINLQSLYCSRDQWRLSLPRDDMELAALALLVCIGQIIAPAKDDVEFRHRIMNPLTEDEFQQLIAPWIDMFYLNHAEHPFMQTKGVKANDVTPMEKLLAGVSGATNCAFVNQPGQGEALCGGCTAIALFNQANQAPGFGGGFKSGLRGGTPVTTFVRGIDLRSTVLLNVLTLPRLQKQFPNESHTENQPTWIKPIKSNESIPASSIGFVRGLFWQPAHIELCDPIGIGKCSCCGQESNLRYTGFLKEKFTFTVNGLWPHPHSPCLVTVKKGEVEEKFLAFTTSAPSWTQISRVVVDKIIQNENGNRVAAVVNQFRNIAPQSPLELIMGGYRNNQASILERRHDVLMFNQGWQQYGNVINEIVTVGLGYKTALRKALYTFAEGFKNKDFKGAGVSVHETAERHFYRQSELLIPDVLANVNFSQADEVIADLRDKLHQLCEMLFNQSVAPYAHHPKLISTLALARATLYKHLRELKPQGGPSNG
T1 sequence 2: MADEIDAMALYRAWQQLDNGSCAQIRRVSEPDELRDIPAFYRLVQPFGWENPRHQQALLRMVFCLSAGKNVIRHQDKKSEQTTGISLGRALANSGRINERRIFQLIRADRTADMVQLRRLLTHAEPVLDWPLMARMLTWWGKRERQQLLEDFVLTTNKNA
T1 sequence 3: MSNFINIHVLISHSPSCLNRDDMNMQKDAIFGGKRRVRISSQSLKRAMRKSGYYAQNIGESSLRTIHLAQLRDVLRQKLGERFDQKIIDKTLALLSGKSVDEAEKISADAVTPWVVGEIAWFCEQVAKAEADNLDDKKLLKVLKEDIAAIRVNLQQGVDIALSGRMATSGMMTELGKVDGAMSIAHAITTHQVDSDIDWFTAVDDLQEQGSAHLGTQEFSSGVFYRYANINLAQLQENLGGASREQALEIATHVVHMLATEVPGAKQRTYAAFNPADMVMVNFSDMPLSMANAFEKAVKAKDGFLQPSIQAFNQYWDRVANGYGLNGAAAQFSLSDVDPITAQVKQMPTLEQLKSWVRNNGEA
T1 sequence 4: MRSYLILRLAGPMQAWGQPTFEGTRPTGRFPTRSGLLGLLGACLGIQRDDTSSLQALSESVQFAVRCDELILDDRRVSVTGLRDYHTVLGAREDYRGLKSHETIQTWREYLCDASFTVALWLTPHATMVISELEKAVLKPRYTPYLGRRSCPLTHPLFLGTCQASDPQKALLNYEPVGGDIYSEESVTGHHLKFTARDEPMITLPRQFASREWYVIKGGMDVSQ
T1 sequence 5: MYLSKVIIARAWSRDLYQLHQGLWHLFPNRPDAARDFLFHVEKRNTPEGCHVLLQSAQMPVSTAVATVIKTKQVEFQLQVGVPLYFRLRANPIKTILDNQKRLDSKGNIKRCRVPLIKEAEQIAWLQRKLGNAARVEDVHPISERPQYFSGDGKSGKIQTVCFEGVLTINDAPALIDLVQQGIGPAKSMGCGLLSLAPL
Description: EMSA; detectable binding; EMSA: 20 mM Tris-HCl pH 8, 20 mM NaCl, 10 nM 32P probe, 30 min at 30 or 37 C, 6% native PAGE; loading 10 min at 30 C with crRNA (0.5 uM in Fig 3). Kd values are printed only in Fig 5A (not in the material). The note with it: protein: recombinant; tags: N-terminal 6His on Cse1 (CasA); copies: 1;2;6;1;1; label: 5'-32P.

For series [2], the target named is T1, Cascade- (crRNA-free …). The series is described as follows: EMSA; affinity slightly lower than crRNA1; EMSA: 20 mM Tris-HCl pH 8, 20 mM NaCl, 10 nM 32P probe, 30 min at 30 or 37 C, 6% native PAGE; loading 10 min at 30 C with crRNA (0.5 uM in Fig 3). Kd values are printed only in Fig 5A (not in the material). The note with it: protein: recombinant, tags: N-terminal 6His on Cse1 (CasA), copies: 1;2;6;1;1. (In general: Mobility shift assays separate free from complexed probe on a gel.)

Series [3] concerns the target T1, Cascade- (crRNA-free …). The series is described as follows: EMSA; loaded with crRNA1; EMSA: 20 mM Tris-HCl pH 8, 20 mM NaCl, 10 nM 32P probe, 30 min at 30 or 37 C, 6% native PAGE; loading 10 min at 30 C with crRNA (0.5 uM in Fig 3). Kd values are printed only in Fig 5A (not in the material). The settings on record: protein: recombinant; tags: N-terminal 6His on Cse1 (CasA); copies: 1;2;6;1;1; label: DNA 5'-32P; guide + target strand.

The target in series [4] is T2, Cascade+ (Cascade co-expressed with g8 crRNA) (Escherichia coli (K12; expressed in …, UniProt Q46901;P76632;Q46899;Q46898;Q46897 1-502;1-160;1-363;1-224;1-199).
T2 sequence 1: T1 sequence 1
T2 sequence 2: T1 sequence 2
T2 sequence 3: T1 sequence 3
T2 sequence 4: T1 sequence 4
T2 sequence 5: T1 sequence 5
The series is described as follows: EMSA; EMSA: 20 mM Tris-HCl pH 8, 20 mM NaCl, 10 nM 32P probe, 30 min at 30 or 37 C, 6% native PAGE; loading 10 min at 30 C with crRNA (0.5 uM in Fig 3). Kd values are printed only in Fig 5A (not in the material). The note with it: protein: recombinant; tags: N-terminal 6His on Cse1 (CasA); copies: 1;2;6;1;1; label: DNA 5'-32P; guide + target strand.

Series [5] addresses T1, Cascade- (crRNA-free …). The series is described as above. The settings on record: protein: recombinant, tags: N-terminal 6His on Cse1 (CasA), copies: 1;2;6;1;1.
[6] abbreviates: label: DNA 5'-32P, guide + blunt duplex.

B1: crRNA13 (-8/+9) (ssRNA)
RNA: AUAAACCGCUGUCUUUCGCUGCUGAGGGUGACGAUCCGCCGAGUUCCCC
B1: the binding result with Cascade- (crRNA-free …) [1] is on record as “binds”.

B2: crRNA12 (-8/+11) (ssRNA)
RNA: AUAAACCGCUGUCUUUCGCUGCUGAGGGUGACGAUCCGCCGAGUUCCCCGC
On to B2, for which the binding result with Cascade- (crRNA-free …) [1] is “binds”.

B3: crRNA7 (-8/+5) (ssRNA)
RNA: AUAAACCGCUGUCUUUCGCUGCUGAGGGUGACGAUCCGCCGAGUU
Turning to B3, in the series with Cascade- (crRNA-free …) [2] (label: 5'-32P), the binding result is listed as “binds”.

B4: g8 crRNA + g8 ssDNA (mixed)
RNA: AUAAACCGCUGUCUUUCGCUGCUGAGGGUGACGAUCCGCCGAGUUCCCCGCGCCAGCGGGG
DNA: CAGGGAGTTAAAGGCCGCTTTTGCGGGATCGTCACCCTCAGCAGCGAAAGACAGCATCGGAACGAGGGTAGCAACGGCT
In the case of B4, the binding result (with Cascade- (crRNA-free …) [3]; in series [4]) was “binds” each time.

B5: crRNA7 (-7/+5) + g8 dsDNA (mixed)
RNA: UAAACCGCUGUCUUUCGCUGCUGAGGGUGACGAUCCGCCGAGUU
DNA 1: B4 DNA
DNA 2: AGCCGTTGCTACCCTCGTTCCGATGCTGTCTTTCGCTGCTGAGGGTGACGATCCCGCAAAAGCGGCCTTTAACTCCCTG
As to B5, in the series with Cascade- (crRNA-free …) [5] (setting [6]), the binding result is “no binding”.

B6: crRNA7 (-8/+1C) + g8 dsDNA (mixed)
RNA: AUAAACCGCUGUCUUUCGCUGCUGAGGGUGACGAUCCGCCC
DNA 1: B4 DNA
DNA 2: B5 DNA 2
For B6, in the series with Cascade- (crRNA-free …) [5] (setting [6]), the binding result was “binds”.

B7: poly-C handle crRNA + g8 dsDNA (mixed)
RNA: CCCCCCCCCUGUCUUUCGCUGCUGAGGGUGACGAUCCGCCGAGUU
DNA 1: B4 DNA
DNA 2: B5 DNA 2
As to B7, in the series with Cascade- (crRNA-free …) [5] (setting [6]), the binding result is listed as “no binding”.

B8: crRNA2 + g8 dsDNA (mixed)
RNA: B4 RNA
DNA 1: B4 DNA
DNA 2: B5 DNA 2
modifications: no 2',3'-cyclic phosphate on crRNA
As for B8, the binding result with Cascade- (crRNA-free …) [5] (setting [6]) is “binds”.

B9: crRNA7 (-6/+5) + g8 dsDNA (mixed)
RNA: AAACCGCUGUCUUUCGCUGCUGAGGGUGACGAUCCGCCGAGUU
DNA 1: B4 DNA
DNA 2: B5 DNA 2
Consider B9, for which, in the series with Cascade- (crRNA-free …) [5] (setting [6]), the binding result is “no binding”.

B10: poly-A handle crRNA9 + g8 dsDNA (mixed)
RNA: B3 RNA with U2A, C6A, C7A, G8A
DNA 1: B4 DNA
DNA 2: B5 DNA 2
Turning to B10, in the series with Cascade- (crRNA-free …) [5] (setting [6]), the binding result was “no binding”.

B11: crRNA7 (-8/+1G) + g8 dsDNA (mixed)
RNA: B6 RNA with C41G
DNA 1: B4 DNA
DNA 2: B5 DNA 2
Consider B11, for which the binding result with Cascade- (crRNA-free …) [5] (setting [6]) is listed as “binds”.

B12: crRNA7 (-8/+5) + g8 dsDNA (mixed)
RNA: B3 RNA
DNA 1: B4 DNA
DNA 2: B5 DNA 2
With B12, the binding result with Cascade- (crRNA-free …) [2] (setting [6]) is reported as “binds”.

B13: crRNA2 (-8/+21), no cyclic phosphate (structured_RNA)
RNA: B4 RNA
modifications: no 2',3'-cyclic phosphate
Consider B13, for which, in the series with Cascade- (crRNA-free …) [5] (label: 5'-32P, 3' handle hairpin), the binding result is listed as “binds”.

B14: crRNA7 (-8/+1A) + g8 dsDNA (mixed)
RNA: B6 RNA with C41A
DNA 1: B4 DNA
DNA 2: B5 DNA 2
Turning to B14, the binding result with Cascade- (crRNA-free …) [5] (setting [6]) was “binds”.

B15: crRNA7 (-8/+1U) + g8 dsDNA (mixed)
RNA: B6 RNA with C41U
DNA 1: B4 DNA
DNA 2: B5 DNA 2
As to B15, in the series with Cascade- (crRNA-free …) [5] (setting [6]), the binding result is reported as “binds”.

B16: crRNA11 (-8/+18) (ssRNA)
RNA: AUAAACCGCUGUCUUUCGCUGCUGAGGGUGACGAUCCGCCGAGUUCCCCGCGCCAGCG
On to B16, for which the binding result with Cascade- (crRNA-free …) [1] was “binds”.

The record behind these values is article PMC4288178, “CRISPR RNA binding and DNA target recognition by purified Cascade complexes from Escherichia coli”.
